Where a chain is given by its changes, count along the chain named.
B1: Anti-BCMA-D3-MP04-B11a FAB (Fab, V domains shown)
VH: EVQLVESGGGLIQPGGSLRLSCAASGFIFSHYEMNWVRQAPGKGLEWVSAIGQVDGEVYADSVKGRFTISRDNSKNTLYLQMNSLRAEDTAVYYCARVPYSYSGYSGADIWGQGTLVTVSS
VL: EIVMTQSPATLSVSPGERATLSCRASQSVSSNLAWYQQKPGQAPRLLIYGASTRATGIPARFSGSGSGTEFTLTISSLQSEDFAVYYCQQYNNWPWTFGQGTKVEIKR
notes: Fab
B2: Anti-BCMA-D3-MP04-F3 FAB (Fab, V domains shown)
VH: B1 VH with D55G, G56N, E57T
VL: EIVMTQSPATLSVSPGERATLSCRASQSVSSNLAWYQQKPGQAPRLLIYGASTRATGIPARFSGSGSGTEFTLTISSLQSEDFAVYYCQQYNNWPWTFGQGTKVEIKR
notes: Fab
B3: Anti-BCMA-D3-MP04-B11b FAB (Fab, V domains shown)
VH: B1 VH with G56A
VL: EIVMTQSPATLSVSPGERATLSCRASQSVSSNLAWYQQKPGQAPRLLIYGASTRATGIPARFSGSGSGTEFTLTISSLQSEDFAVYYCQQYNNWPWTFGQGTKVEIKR
notes: Fab
B4: Anti-BCMA-D3-MP04-B11d FAB (Fab, V domains shown)
VH: B1 VH with D55A, G56A
VL: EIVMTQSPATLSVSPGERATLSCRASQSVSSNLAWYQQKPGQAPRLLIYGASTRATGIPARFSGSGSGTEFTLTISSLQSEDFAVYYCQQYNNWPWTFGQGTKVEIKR
notes: Fab
B5: Anti-BCMA-D3-MP04-G7 FAB (Fab, V domains shown)
VH: B1 VH with V54R, E57T
VL: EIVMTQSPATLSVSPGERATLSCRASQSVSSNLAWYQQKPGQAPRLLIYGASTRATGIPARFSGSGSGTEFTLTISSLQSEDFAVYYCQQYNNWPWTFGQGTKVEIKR
notes: Fab
B6: Anti-BCMA-D3-MP05-A9 FAB (Fab, V domains shown)
VH: B1 VH with V54G, D55G, G56N, E57T, S103A
VL: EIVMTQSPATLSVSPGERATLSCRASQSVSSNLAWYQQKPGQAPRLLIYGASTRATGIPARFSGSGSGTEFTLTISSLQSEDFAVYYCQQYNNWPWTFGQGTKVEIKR
notes: Fab
B7: Anti-BCMA-D3-MP05-F4 FAB (Fab, V domains shown)
VH: B1 VH with V54G, D55G, G56N, E57T, S103L, S106Q
VL: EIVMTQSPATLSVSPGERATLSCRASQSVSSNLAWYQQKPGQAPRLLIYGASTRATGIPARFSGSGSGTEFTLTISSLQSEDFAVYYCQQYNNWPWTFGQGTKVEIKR
notes: Fab
B8: Anti-BCMA-D3-MP04-B11c FAB (Fab, V domains shown)
VH: B1 VH with D55E
VL: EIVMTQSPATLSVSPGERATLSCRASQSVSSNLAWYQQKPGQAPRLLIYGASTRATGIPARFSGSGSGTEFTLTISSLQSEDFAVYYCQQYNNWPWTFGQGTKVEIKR
notes: Fab
B9: Anti-BCMA-D3-MP05-C1b FAB (Fab, V domains shown)
VH: B1 VH with V54G, D55G, G56N, E57T, S103I, S106A
VL: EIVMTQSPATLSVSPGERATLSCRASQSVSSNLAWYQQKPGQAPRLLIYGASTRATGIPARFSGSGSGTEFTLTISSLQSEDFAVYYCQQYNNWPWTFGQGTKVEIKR
notes: Fab
B10: Anti-BCMA-D3-MP05-C1a FAB (Fab, V domains shown)
VH: B1 VH with V54G, D55G, G56N, E57T, S103M, S106A
VL: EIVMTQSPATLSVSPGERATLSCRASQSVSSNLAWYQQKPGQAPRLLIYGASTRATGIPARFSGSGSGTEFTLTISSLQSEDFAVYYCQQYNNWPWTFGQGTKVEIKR
notes: Fab
B11: Anti-CD38-B3-PP11-A2 FAB (Fab, V domains shown)
VH: QVQLVQSGAEVKKPGSSVKVSCKASGQTTPMYSISWVRQAPGQGLEWMGRIIPTGANANYAQKFQGRVTITADESTSTAYMELSSLRSEDTAVYYCARSWPSLGSGWFDIWGQGTLVTVSS
VL: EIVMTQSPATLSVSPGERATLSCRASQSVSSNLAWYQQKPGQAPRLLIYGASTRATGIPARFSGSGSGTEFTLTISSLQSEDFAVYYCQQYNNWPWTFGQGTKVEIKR
notes: Fab
B12: Anti-CD38-B3-PP11-E1 FAB (Fab, V domains shown)
VH: B11 VH with T28H, T29K, P30R, M31V
VL: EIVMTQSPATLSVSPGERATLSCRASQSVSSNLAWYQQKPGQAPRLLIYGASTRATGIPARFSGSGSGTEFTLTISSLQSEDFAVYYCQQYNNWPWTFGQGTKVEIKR
notes: Fab
B13: Anti-CD38-B3-PP11-D11a FAB (Fab, V domains shown)
VH: B11 VH with Q27G, T28D, T29F, P30T, M31L, S102I, S105N
VL: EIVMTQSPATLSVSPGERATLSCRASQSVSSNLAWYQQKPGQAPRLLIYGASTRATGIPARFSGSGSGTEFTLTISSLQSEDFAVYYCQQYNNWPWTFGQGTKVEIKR
notes: Fab
B14: Anti-CD38-B3-PP11-C11 FAB (Fab, V domains shown)
VH: B11 VH with Q27G, T28D, T29F, P30T, M31L, W100T, S102T, L103Y
VL: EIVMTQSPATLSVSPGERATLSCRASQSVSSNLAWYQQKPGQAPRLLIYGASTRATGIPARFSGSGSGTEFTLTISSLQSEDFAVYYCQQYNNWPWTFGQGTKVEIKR
notes: Fab; also called anti-CD38-B3-C11; B3-C11
B15: Anti-CD38-B3-PP11-H1a FAB (Fab, V domains shown)
VH: B11 VH with T28N, T29E, P30R
VL: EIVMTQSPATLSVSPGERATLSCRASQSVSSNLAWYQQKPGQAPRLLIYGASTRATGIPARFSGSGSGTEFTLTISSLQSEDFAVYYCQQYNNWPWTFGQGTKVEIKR
notes: Fab
B16: Anti-CD38-B3-PP11-D1b FAB (Fab, V domains shown)
VH: B11 VH with Q27I, T28Q, P30R, M31W
VL: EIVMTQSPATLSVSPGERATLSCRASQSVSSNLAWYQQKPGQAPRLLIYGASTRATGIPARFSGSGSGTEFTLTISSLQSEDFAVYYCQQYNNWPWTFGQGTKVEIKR
notes: Fab
B17: Anti-CD38-B3-PP11-E11 FAB (Fab, V domains shown)
VH: B11 VH with Q27G, T28D, T29F, P30T, M31L, L103Y, S105K
VL: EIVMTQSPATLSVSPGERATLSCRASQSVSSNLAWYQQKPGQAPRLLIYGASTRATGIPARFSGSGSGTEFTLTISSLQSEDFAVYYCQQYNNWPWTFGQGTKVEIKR
notes: Fab
B18: Anti-CD38-B3-PP11-D1a FAB (Fab, V domains shown)
VH: B11 VH with Q27M, T28Q, P30R, M31W
VL: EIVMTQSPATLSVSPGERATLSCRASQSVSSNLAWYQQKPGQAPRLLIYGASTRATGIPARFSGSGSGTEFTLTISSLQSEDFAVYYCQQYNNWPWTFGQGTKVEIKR
notes: Fab
B19: Anti-CD38-B3-PP11-H10 FAB (Fab, V domains shown)
VH: B11 VH with Q27G, T28D, T29F, P30T, M31L, S102H, L103Y
VL: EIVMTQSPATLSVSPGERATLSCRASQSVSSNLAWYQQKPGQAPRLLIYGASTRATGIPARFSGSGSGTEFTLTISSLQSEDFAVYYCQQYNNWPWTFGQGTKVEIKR
notes: Fab
B20: Anti-CD38-E2-UCP01-A10 FAB (Fab, V domains shown)
VH: QVQLVQSGAEVKKPGSSVKVSCKASGLPDATYAIGWVRQAPGQGLEWMGRIIPVFGSAHYAQKFQGRVTITADESTSTAYMELSSLRSEDTAVYYCARGLGYYLYSSYYFDIWGQGTLVTVSS
VL: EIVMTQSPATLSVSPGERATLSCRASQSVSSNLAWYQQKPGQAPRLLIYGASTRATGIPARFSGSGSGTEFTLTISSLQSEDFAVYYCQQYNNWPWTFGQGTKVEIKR
notes: Fab
B21: Anti-CD38-E2-UCP02-G8 FAB (Fab, V domains shown)
VH: B20 VH with L27G, P28S, D29F, A30S, T31N, V54A, F55L, S57G, A58V
VL: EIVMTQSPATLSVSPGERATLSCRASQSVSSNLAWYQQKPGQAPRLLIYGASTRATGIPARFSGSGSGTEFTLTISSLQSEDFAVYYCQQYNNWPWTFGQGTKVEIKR
notes: Fab
B22: Anti-CD38-E2-UCP02-F8 FAB (Fab, V domains shown)
VH: B20 VH with L27G, P28S, D29F, A30S, T31N, V54S, F55L, G56D, S57A, A58G
VL: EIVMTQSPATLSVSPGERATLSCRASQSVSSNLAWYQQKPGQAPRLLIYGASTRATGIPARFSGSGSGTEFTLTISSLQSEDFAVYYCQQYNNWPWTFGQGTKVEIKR
notes: Fab
B23: Anti-CD38-E2-UCP02-A5 FAB (Fab, V domains shown)
VH: B20 VH with L27G, P28S, D29F, A30S, T31N, V54D, F55L, S57A
VL: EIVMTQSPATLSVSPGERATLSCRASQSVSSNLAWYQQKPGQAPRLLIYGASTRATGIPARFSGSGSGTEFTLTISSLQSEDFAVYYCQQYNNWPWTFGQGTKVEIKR
notes: Fab; also called anti-CD38-E2-A5; E2-A5
B24: Anti-CD38-E2-UCP02-E7 FAB (Fab, V domains shown)
VH: B20 VH with L27G, P28S, D29F, A30S, T31N, V54A, F55L, G56A, S57A, A58T
VL: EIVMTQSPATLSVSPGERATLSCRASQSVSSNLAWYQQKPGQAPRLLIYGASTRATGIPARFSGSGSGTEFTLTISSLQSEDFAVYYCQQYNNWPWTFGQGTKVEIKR
notes: Fab
B25: Anti-CD38-E2-UCP02-F3 FAB (Fab, V domains shown)
VH: B20 VH with L27G, P28S, D29F, A30S, T31N, F55L, G56D, S57A
VL: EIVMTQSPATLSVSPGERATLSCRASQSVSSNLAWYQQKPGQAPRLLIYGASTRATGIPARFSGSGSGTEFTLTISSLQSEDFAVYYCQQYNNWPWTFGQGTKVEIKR
notes: Fab
B26: Anti-CD38-E2-UCP02-D6 FAB (Fab, V domains shown)
VH: B20 VH with L27G, P28S, D29F, A30S, T31N, V54R, F55L, G56D, S57A, A58E
VL: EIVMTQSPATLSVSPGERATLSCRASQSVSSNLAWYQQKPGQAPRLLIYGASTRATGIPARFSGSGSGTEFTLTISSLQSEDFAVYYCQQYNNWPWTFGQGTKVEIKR
notes: Fab
B27: Anti-BCMA-D3-MP04-A2 FAB (Fab, V domains shown)
VH: EVQLVESGGGLIQPGGSLRLSCAASGFIFSHYEMNWVRQAPGKGLEWVSAIGQQGGNTVYADSVKGRFTISRDNSKNTLYLQMNSLRAEDTAVYYCARVPYSYSGYSGADIWGQGTLVTVSS
VL: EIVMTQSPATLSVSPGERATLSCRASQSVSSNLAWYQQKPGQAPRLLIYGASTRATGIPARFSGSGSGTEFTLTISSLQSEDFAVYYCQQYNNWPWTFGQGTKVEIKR
notes: Fab
B28: Anti-BCMA-D3-MP04-D4 FAB (Fab, V domains shown)
VH: B27 VH with Q54V
VL: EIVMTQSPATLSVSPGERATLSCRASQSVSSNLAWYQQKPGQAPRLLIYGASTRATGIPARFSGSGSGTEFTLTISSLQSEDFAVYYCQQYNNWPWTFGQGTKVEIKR
notes: Fab
B29: Anti-BCMA-D3-MP03-G7 FAB (Fab, V domains shown)
VH: B27 VH with A50I, Q54R, G56H, N57T, V59E
VL: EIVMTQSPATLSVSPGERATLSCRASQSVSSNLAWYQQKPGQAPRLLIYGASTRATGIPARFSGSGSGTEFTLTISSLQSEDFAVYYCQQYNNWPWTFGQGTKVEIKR
notes: Fab
B30: Anti-BCMA-D3-MP04-C2 FAB (Fab, V domains shown)
VH: B27 VH with Q54F
VL: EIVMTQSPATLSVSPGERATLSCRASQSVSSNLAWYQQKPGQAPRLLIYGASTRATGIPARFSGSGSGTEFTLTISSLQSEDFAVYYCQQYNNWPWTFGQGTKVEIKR
notes: Fab
B31: Anti-BCMA-D3-MP04-E11 FAB (Fab, V domains shown)
VH: B27 VH with Q54L
VL: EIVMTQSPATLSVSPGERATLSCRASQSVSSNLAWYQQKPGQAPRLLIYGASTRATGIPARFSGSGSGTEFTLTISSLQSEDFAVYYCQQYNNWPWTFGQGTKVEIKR
notes: Fab; also called anti-BCMA-D3-E11; D3-E11
B32: Anti-BCMA-D3-MP04-C8b FAB (Fab, V domains shown)
VH: B27 VH with Q54I, G56F, N57G, V59L, S63N
VL: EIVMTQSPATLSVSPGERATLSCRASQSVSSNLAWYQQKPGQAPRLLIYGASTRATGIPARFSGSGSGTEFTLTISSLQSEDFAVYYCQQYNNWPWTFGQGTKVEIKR
notes: Fab
B33: Anti-BCMA-D3-MP04-C8a FAB (Fab, V domains shown)
VH: B27 VH with Q54M, G56F, N57G, V59L, S63N
VL: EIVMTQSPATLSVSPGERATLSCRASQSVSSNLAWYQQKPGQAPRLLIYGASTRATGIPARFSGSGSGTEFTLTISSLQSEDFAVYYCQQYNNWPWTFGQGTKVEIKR
notes: Fab

Key:
[1] = target: T1, recombinant human BCMA Fc fusion protein (Acrobiosystems BC7-H5254 / BCA-H5254) (human, UniProt Q02223 1-54); assay: SPR, Fab as analyte, captured human BCMA-Fc
T1 construct: also called recombinant BCMA-Fc protein; not shown: Fc of the bought fusion protein, not described
T1 sequence (looked up): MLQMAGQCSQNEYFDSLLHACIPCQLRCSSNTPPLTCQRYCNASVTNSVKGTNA

[2] = target: T2, recombinant cynomolgus monkey BCMA Fc fusion protein (Acrobiosystems BCA-C5253) (cynomolgus monkey, UniProt A0A2K5UD97 1-53); assay: SPR, Fab as analyte, captured cynomolgus BCMA-Fc
T2 construct: bought protein; not shown: Fc of the bought fusion protein, not described
T2 sequence (A0A2K5UD97 entry or part of it): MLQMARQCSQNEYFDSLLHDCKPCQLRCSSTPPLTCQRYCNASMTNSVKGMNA

[3] = target: T3, human BCMA on cells (NCI-H929, NCI-H929 CD38 KO, MOLP-8) (human, UniProt Q02223 1-184); assay: flow cytometry, NCI-H929 cells, one-site fit
T3 construct: whole, on cells; endogenous BCMA of myeloma cell lines
T3 sequence (looked up): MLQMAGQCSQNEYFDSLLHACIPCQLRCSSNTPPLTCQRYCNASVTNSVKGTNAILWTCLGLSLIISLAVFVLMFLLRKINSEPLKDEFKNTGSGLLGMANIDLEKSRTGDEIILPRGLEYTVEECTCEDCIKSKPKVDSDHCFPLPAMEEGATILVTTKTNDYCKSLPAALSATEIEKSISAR

[4] = target: T3, human BCMA on cells (NCI-H929, NCI-H929 …); assay: flow cytometry, NCI-H929 cells
[5] = target: T4, Biotinylated Human CD38 Protein, Avitag, His Tag (Acrobiosystems CD8-H82E7) (human, UniProt P28907 43-300, biotinylated); assay: SPR, Fab as analyte, biotin-captured human CD38
T4 construct: bought protein; also called biotinylated recombinant human CD38 protein; human CD38-avi-his

[6] = target: T5, recombinant cynomolgus monkey CD38-ECD-C-his protein (cynomolgus monkey, UniProt Q5VAN0 45-301); assay: SPR, Fab as analyte, captured cynomolgus CD38-his
T5 construct: made in house; Q5VAN0 residues 43-301 (residue 44 deleted) with C-terminal 6-His; also called cynomolgus monkey CD38-C-His; recombinant cynomolgus monkey CD38 protein

Binder	Kd [1] [nM]	Kd [2] [nM]	Kd [3] [nM]	Maximum binding (RFI) [4] [RFI]	Kd [5] [nM]	Kd [6] [nM]
B1	0.14	0.24	6.03	23700		
B2	0.64	3.03	7.12	19500		
B3	0.52	0.79	14.1	23300		
B4	5.43	4.85				
B5	0.08	0.14	5.82	27000		
B6	2.3	6.54				
B7	0.78	2.83	11.8	29900		
B8	0.16	0.34	3.9	22900		
B9	2.22	5.86				
B10	1.03	1.03				
B11					38.4	62.5
B12					10.5	26.3
B13					8.2	17.3
B14					5.4	25
B15					15.3	17.9
B16					5.8	14.6
B17					2	8.9

Binder	Kd [1] [nM]	Kd [2] [nM]	Kd [3] [nM]	Maximum binding (RFI) [4] [RFI]	Kd [5] [nM]	Kd [6] [nM]
B18					10	9.6
B19					6.2	22.7
B20					9.4	8.6
B21					5.2	4.2
B22					17.6	24.5
B23					23.6	4.4
B24					2.2	1.8
B25					3.5	2.4
B26					4.9	1.1
B27	0.03	0.01	7.68	21500		
B28	0.02	0.01	8.84	25300		
B29	0.41	0.31	29.5	21500		
B30	0.03	0.02	6.49	24600		
B31	0.01	0.01	13.4	31800		
B32	0.03	0.11	7.39	28300		
B33	0.09	0.17	3.65	26500		
